The subject of data set [1] is C/EBPbeta isoform LIP (Flag-LIP), P17676-3. Put plainly: competition EMSA. To be noted: 20 mM HEPES pH 8.0, 1 mM MgCl2, 60 mM KCl, 0.1 mM EDTA, 15% glycerol, 1 ug poly dI-dC, 8 ug nuclear extract; 30 min room temperature then 15 min 4 C; gel at …. On the technique in general: A gel shift assay detects complexes by their altered migration in electrophoresis.
Data set [2] relates to C/EBPbeta isoform LAP, P17676-2. The experiment in a line: competition EMSA. To be noted: 20 mM HEPES pH 8.0, 1 mM MgCl2, 60 mM KCl, 0.1 mM EDTA, 15% glycerol, 1 ug poly dI-dC, 8 ug nuclear extract; 30 min room temperature then 15 min 4 C; gel at ….
C/EBPbeta isoform LAP, P17676-2, sequence (P17676 24-345): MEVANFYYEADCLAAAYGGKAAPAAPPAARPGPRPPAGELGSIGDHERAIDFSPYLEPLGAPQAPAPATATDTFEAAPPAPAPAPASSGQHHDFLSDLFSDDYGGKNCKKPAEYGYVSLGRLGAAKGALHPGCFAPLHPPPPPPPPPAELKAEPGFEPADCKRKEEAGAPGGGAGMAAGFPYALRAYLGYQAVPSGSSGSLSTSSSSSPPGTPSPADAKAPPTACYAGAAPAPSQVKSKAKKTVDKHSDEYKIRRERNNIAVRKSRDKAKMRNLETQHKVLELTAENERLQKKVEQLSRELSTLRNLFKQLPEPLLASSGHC

C/EBPbeta isoform LIP (Flag-LIP), P17676-3, sequence (P17676 199-345): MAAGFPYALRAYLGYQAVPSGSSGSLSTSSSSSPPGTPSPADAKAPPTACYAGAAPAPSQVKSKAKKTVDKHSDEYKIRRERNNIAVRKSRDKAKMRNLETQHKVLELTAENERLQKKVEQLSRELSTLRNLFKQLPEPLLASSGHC

The term Kd denotes the equilibrium constant for the complex coming apart. Read a high Kd as weaker binding. With “GCTTGCTTGCTTAAAGCCCT (double strand) [DS1 wild-type C/EBP site]”, the Kd in data set [1] was 17.5 10^-7 M; in data set [2], 50 10^-7 M.

For “GCTTGCTTGCTTAAAGACCT (double strand) [DS1C/A C/EBP site]”, the Kd in data set [1] was 5.1 10^-7 M; in data set [2] it was 24.8 10^-7 M.
